Experimental data taken from the nanobody polyreactivity screen of Harvey et al. (2022).

Assay: yeast display, Sf9 membrane polyspecificity reagent, FACS + sequencing; frameworks hold sequencing errors
Method in brief: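 Galactose-induced (36–48 hours) yeast carrying a synthetic nanobody display library were exposed to 10% biotinylated, detergent-solubilized Sf9 membrane reagent at 4 °C for 1 hour. FACS followed streptavidin microbead enrichment, using low and high (top ~1%) gates for expression (anti-HA) and reagent binding (streptavidin). Colony PCR, MiSeq 2 × 250 sequencing and CDR-length filtering followed. Labels for polyreactivity reflect the gate of origin.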

| Sequence | polyreactivity (PSR sort gate) |
| --- | --- |
| QVQLVESGGALVQAGGSLRISCAASGFTFHKNAMGWYRQAPGKERELVAAITYRGGSTYYADSVKGRFTISRDNAKNTVYLQMNSLKPEDTSVYYCAAELRPYITYDGPRKKFYFWGQGTQVTVSS | high polyreactivity |
| QVQLVESCGGLVQAGGSLRLSCAASGRIFKYNPMGWYRQAPGQERELVASITASGGRTYYADSVKGRFTISRDIAKNTVYLQMNSLKTEDTAVYYCAAGRPFSKYGYWRQGTQVTVSS | high polyreactivity |
| QVQLVESGGGLVQAGGSLRLSCAASGSISTYYAMGWYRQAPGKERELVAAITRNGGSTYYADSVKGRFTISRDNSKNTVYLQMNSLKPEDTAVYYCAARNAFGTYYYWGQGTQVTVSS | high polyreactivity |
| QVQLVDSGGGLVQAGGSLRLSCAASGFTFSTNAMGWYRQAPGKERELVAGITSSGGNTYYADSVKGRFTISRDNAKNTVYLQMNSLKPEDTAVYYCAKRRNYVAYDYWGQGTQVTVSS | high polyreactivity |
| QVQLVESGGGLVQAGGSLRLSCAASGVIFYVYAMGWYRQAPGKERELVAAISADGGITYYADSVKGRFTISRDNAKNTVYLQMNSLKPEDTAVYYCAADYYGSVQGGIQYGYYYWGQGTQVTVSS | low polyreactivity |
| QVQLVESGGGLVQAGGSLRLSCAASGRNFFYALGWYRQAPGKERELVASITTSGTSTYYADSVKGRFTISRDNAKNIVYLQMNSLKPEDTAVYYCNATSNSIRWYDLYYWGQGTKVTVSS | low polyreactivity |
| QVQLVESGGGLVQAGGSLRLSCAASGSTYFRNAMGWYRQAPGKERELVAAISSSCGSTYYADSVKGRFTISRDNAKNTVYLQMTSLKPEDTAVYYCNADWYYAGYGYWGQGTQVTVSS | low polyreactivity |
| QVQLVESGGGLVQAGGSLRLSCAASGSTFGRYVMGWYRQAPGKERELVAAISKNAGSTYYADSVKGRFTISRDNAKNTVYLQMNSLKPEDTAVYYCNAQSFREYGYWGQGTQVTVSS | high polyreactivity |
| QVQLVESGGGLVQAGGSLRLSCAASGFTSYGYAMGWYRQAPGKERELVAAISRSGGSTYYADSVKGRFTISRDNAKNTVYLQMNSLKPEDTAVYYCAVAVGREYVYRYYYWGQGTQVTVSS | high polyreactivity |
| QVQLVESGGGLVQAGGSLRISCAASGYTFFNYAMGWSRQAPGKERELVAAITWSGGSRYYADSVKGRFTISRVNAKNTVYLQMNSLKPEDTAVYYCAADAITPRDPYVTEKLDYWGQGTQVTVSS | low polyreactivity |
| QLQLEESGGGLVQAGGSLRLSCAASANTIYQYAMGRYRQAPGKERELVAAIDWSGGSTYADSVKGRFTISRDNAKNTVYLQMNSLKPEDTAFYYCNASVKPSNVWSRGYDYWGQGTQVTVSS | low polyreactivity |
| QVQLLESGGGLVQAGGSLRLSCAASGRIFGYYAMGWYRQAPGKERELVASISWSGGSTYYADSVKGRFSISRDNAKNTVYLQMNSLKPEDTAVYYCAAKRSFLSTIGNYDYWGQGTQVTVSS | high polyreactivity |
| QDQLVESGGGLFQAGGSLRLSCAASGSIFGHYAMGWYRQAPGKERELVAAISWRGGSTYYADSVKGRFTISRDNAKNTVYIQMNSLKPEDTAVYYCAADRWDKAYDYWGQVTQVTVSS | low polyreactivity |
| QVQLVESGGGLVQAGGSLRLSCAASGFTLLWNAMGWYRQAPGKERELVAAINKSGGSTYADSVKGRFTISRDNAKNTVYLQMNSLKPEDTAVYYCAAEVDYSYWPEYARKYYYWGQGTQVTVSS | low polyreactivity |
| QVQLVESGGGLVQAGGSLRLSCAASGSNFKWYAMGWYRQAPGKERELVSAISKSGGSTYYADSVKGRFTISRDNAKNTVYLQMNSLKPEDTAVYYCNAVYIGSRRRYEYDYWGQGTQVTVSS | high polyreactivity |
| QVQLEESGGGLVQAGGSLRLSCAASGFTFPTNAMGWYRQAPGKERELVATISLGAGSTHYADSVKGRFTISRDNAKNTVYLQMNSLKPEDTAVYYCAARSRRWYDYDYWGQGTQVTVSS | low polyreactivity |
| QVQLVESRGGLVQAGGSLRLSCAASGRILPYHVMGWYSQAPGKERELVAAISSGGTTDYADSVKGRFTISRDNANNTVYLQMNSLKPEDTAVYYCAATYDYWTWGYDYWGQGTQVTVSS | low polyreactivity |
| QVQLVESGGGLVQAGGSLRLSCAASGFIFYRNAMGWYRQAPGKERELVAAISQRGGRTYADSVKGRFTISRDNAKNTVYLQMNSLIPEDTAVYYCAADYLDSTYGYVYGWDDYWGQGTQVTVSS | low polyreactivity |
| QVQLVESGGGLVQAGGSLRLSCAASGFIFTGYTMGWYRQAPGKERELVAAISYRGGSTYYSDSVKGRFTISRDNAKNTVYLQMNSLKPEDTEVYFCAAESIYFYEYDYWGQGTQVTVSS | high polyreactivity |
| QVQLVESGGGLVQEGGSLRLSCAASGITFSYYAMGWYREAPGKEREWVATIRSSGGSTYYADSVKGRFTISRENAKNTVYLQMNSQKPEDTAVYYCAVRLWFDYNYWGQGTQVTVSS | low polyreactivity |
| QVQLVESGGGLVQAGGSLRLSCAASGRTFAKYAMGWYRQAPGKEREWVAAINSSGGSTYYADSVKGRFTISRDNAKNTVYLQMNSLKPEDTAVYYCAKEYYSYDVYLGVSYVGRYDYWGQGTQVTVSS | low polyreactivity |
| QVQVVESGGGLVQAGGSLGLSCAASGRTFRVYAMGWYRQAPGKERELVASITRGGGTYADSVKGRFTISRDNAKNTVYLQMNCLKPEDTAVYYCNARWQRSTGGRQRYDYWGLGTQVTVSS | high polyreactivity |

| Sequence | polyreactivity (PSR sort gate) |
| --- | --- |
| QVQLVESGGGLVQAGGSLRLSCAASGFIFTGNVMGWYRQAPGKERELVAAITSSGGSTYYADSVKGRFTISRDNAKNTVYLQMNSLKPEDTAVYYCATRYGGRYYWGQGTQVTVSS | high polyreactivity |
| QVQLVESGGGLVQAGGSLRLSCAASGSIFYSNAMGWYRQAPGKERELVAAIHWSGGSTYYADSVKGRFTISRDNAKNTFYLLMNSLKPEDTAVYYCAADYGWGPIYDYWGQGTQVNVSS | low polyreactivity |
| QVQLVESVGGLVQAGGSLRLSCAASGRRTIRYNAMGWYRQAPGKEREFVASISRSGGSTYYADSVKGRFTISRDNAKNTVYLQMNSLKPEDTAVYYCAAAASHLVAYGWGYEYYYWGQGTQVTVSS | high polyreactivity |
| QVQLVESGAGLVQAGGSLRLSCAASGRTFVDNTMGLYTHAPGKERELVASISSGGSTYYADSVKGRFTISRDNAKNTVYLQMNRLKPEDTAVYDCATGDTLFVFYPDYEYWGQGTQVTVSS | low polyreactivity |
| QVQLVESGGGLVQAGGSLRLSCAASGSIFFAYVMGWYRQAPGKERELDAVITYSGGSTYYADSVKGRFTISRDNAKNTVYLQMNSLKPEDTAVYDCAADETSALDDYWGQGTQVTVSS | low polyreactivity |
| QVQLVESGGGLVQAGGSLRLSCAASGRIFYTNAMGWYRQAPGKESELVAVISWGGDTTYYADSVKGRFTISRDNAKYTVYLQMNSLKPDDTADYYFNADWGPTYEIYDSWGQGTQVTVSS | low polyreactivity |
| QVQLVESGGGLVQAGGSLRLSCAASGRIFINVLGWSRQAPGKETELVATITNSGGSTYYADSVKGRFTISRDNAKNTVYLQMNSLKPEDTAVYYCAKRSYHRYGVYRYDYWGQGTQLTVSS | high polyreactivity |
| QVQHVESGGGLVQAGGSLRLRCAASGSIFVHNDMGWYRQAPGKERDLVAAISSGSSTNYADSVKGRFTISRDNAKNTVFLQMNSLKPEDTAVYYCAVTSPYSHGYSYWGADSRDYWGQGTQVTVSS | low polyreactivity |
| QVQLVESGGGLVQAGGSLRLSCAASGRIFGYYAMGWYRQAPGKERELVAAISSNGGSTYYADSVKGRFTISRDNAKNTVYLQMNSLKPEDTAVYYCKVYFYSRHYFYRGDYWGQGTQVTVSS | high polyreactivity |
| QVQLQESCGGLVQAGGSLRLSCAASGSIFDGFNMGWYRQAPGKEREFVAAISYGASTYYADSVKGRFTVSRDNAKNSVYLQMNSLKPEDTAVYYCAVYDELYHVLVYWGRGTQVTVSS | low polyreactivity |
| QVQRVDSGGGIVQAGGSLRLSCADSGSIFNRYAMGWYRQAPGKERELFAAISSSSGSTYYADSVKGRFTISRDNSKNTVYLQMNSLKPEDTAVYYCATRRKVVPTQVGYYYRGGVDYWGQGTQVTVSS | high polyreactivity |
| QVQLVESGGGLVQAGGSLRLSCAPSGRIFEIYAMGWYRQAPGKESELVAAISWRGVSTYYADSVKGRFTISRDNAKNTVYLQMNSLKPEDTAVYYCNKDVDYFWYVEYDYWGQGTQVTVSS | low polyreactivity |
| QVQLVESGGGLVQAGGSLRLSCAASGSTFTGNAMGWYRQAPGKERELVAAISRSGGSTFYADSVKGRFTISRDNAKNTVYLQMNSLKPEDTAVYYCATRYVVDMDYWGQGTQVTVSS | high polyreactivity |
| QDALVESCGGLVQAGGSLRLICAASGSTFDTYALGWYRQAPAKEWELVAGISWSGGSTFFADSVKGRFTISRDNAKNTVSLQMNSLKPEDTAVYDCAKQLWVGVKYDYWGQGPQVTVSS | low polyreactivity |
| HVQLVESGGGLVQAGGSLRLSCAASGRTFGAYAMGWYRQAPGKERELVAAISKSGGRTYYADSVKGRFTISRDNAKNTVYLQMNSLKPEDSAVYYCNARGFRGEYDYWGQGTQVTVSS | high polyreactivity |
| QVQLVESGGGLVQAGGSLRLSCAASGRILQPNAMGWYRQAPGKERELVAGISRSGGGTYYADSVKWRFTISRDNAKNTVYLQMNTLKPEDTAVYYCAAYRYGYGYGYWGQGTQLTVSS | high polyreactivity |
| QVQLVESGGGLVQAGGSLRLSCAASGRIFLWYAMGWYRQAPGKERELVAAISSNGGSTRYADSVKGRFTISRDNAKNTVYLQMNSLKPVDNAVYYCNADVHWNRYPYGGNGYGYWGQGTQVTVSS | low polyreactivity |
| QVQLVESGGVLVQAGGSLRLSCAASGSIFKLNAMGWYRQAPGKERELVAVINKSGGRTFYADSVKGRFTISRDNAKNTVYLQMNRLKPEDTAVYYCNAVSNLAVNLDYWGQGTQVTVSS | high polyreactivity |
| QVELVESGGGLVQAGGSLRLSCPASGRTFYYYAMGWSRQEPGKERELVATITKSSGSTYYADSVKGRFTISRDNAKNTVYLQMNSLKPEDTAVYYCNADPWAKTPYYYWGQGTQVTVSS | high polyreactivity |
| QVQLVESGGGLVQAGGSLRLSCAASGGIFTSNAMGWYRQAPGKERELVAAITKNGGRTYYADSVKGRFTISRDNAKNTVYLQMNSLKPEDTAVYYCNAAVTFRCYDYWGQGTQVTVSS | high polyreactivity |
| QVQLVESGGGLVQAGGSLRLSCAASGRIFTRYTMGWYRQAPGKDRELVAAITRGGSTYYADSVKGRFTISRDNANNTVYLQMNSLKPEDTAVYYCATQVWGGRYNYWGQGTQVTVTS | high polyreactivity |
